Reference: patent publication US20160264653A1 (published 2016)

T1: EFNA4 antigen (human, UniProt P52798 26-170, limits assumed)
T1 construct: also called ephrin-A4 antigen
T1 sequence: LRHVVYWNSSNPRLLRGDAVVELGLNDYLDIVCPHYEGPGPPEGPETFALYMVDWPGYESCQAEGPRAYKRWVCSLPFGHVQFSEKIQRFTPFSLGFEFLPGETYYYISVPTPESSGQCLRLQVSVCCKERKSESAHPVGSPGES

T2: EphB4-Fc (human, UniProt P54760 16-539, limits assumed)
T2 construct: extracellular domain; not shown: human IgG1 Fc
T2 sequence (looked up): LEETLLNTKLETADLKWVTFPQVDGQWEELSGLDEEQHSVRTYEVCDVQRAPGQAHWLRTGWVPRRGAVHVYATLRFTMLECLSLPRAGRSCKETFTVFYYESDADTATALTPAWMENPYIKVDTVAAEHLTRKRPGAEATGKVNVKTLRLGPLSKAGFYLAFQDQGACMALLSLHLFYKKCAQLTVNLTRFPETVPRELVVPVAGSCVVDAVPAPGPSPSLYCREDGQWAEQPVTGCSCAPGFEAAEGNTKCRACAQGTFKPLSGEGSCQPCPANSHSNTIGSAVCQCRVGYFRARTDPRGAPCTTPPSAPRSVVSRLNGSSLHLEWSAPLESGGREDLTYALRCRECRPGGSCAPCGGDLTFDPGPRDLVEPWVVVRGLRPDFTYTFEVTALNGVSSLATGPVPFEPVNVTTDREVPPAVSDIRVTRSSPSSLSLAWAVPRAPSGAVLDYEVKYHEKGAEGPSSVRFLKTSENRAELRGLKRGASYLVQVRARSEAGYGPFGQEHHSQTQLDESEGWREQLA

T3: human ephrin-A4-His (human, UniProt P52798 26-170, limits assumed)
T3 construct: also called hEFNA4-ECD-His; EFNA4 His fusion protein; not shown: His tag
T3 sequence: T1 sequence

T4: mouse ephrin-A4-His (mouse, UniProt O08542 26-175, limits assumed)
T4 construct: also called murine EFNA4-His; not shown: His tag
T4 sequence (looked up): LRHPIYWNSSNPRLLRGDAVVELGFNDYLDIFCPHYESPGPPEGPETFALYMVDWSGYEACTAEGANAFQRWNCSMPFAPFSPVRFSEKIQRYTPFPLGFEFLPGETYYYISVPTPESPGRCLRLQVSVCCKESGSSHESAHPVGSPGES

B1: hSC4.47 (antibody, human IgG1, V domains shown)
VH: QVQLVQSGAEVKKPGASVKVSCKASGYTFTYFYMNWVRQAPGQGLEWVGQINPNNGGTAYAQKFQGRVTMTRDTSTSTVYMELSSLRSEDTAVYYCARWVGTHYFDYWGQGTTLTVSS
VL: EIVLTQSPATLSLSPGERATLSCRASQSVSSSSYTYIHWYQQKPGQAPRLLINFASNLESGIPARFSGSGSGTDFTLTISSLEPEDFAVYYCQHSWEIPPTFGGGTKLEIK
notes: also called humanized SC4.47
B2: human ephrin-A4 ligand (EFNA4) expressed on the cell surface (ligand)
chain: T1 sequence
notes: GPI-anchored; Cells used: HEK293T.hEFNA4 (retroviral overexpression), parental HEK293T (low level), Jurkat, Z138, K562, PC3, NTX tumor cells; also called hEFNA4; HEK293T.hEFNA4 cells
B3: hSC4.15 (antibody, V domains shown)
VH: EVQLVESGGGLVKPGGSLRLSCAASGFTFSTYGMSWVRQAPGKGLEWVATISSGGTYTYYPDSVKGRFKISRDNAKNSLYLQMNSLRAEDTAVYYCTRHDPNDGYYFLFAYWGQGTLVTVSS
VL: EIVLTQSPGTLSLSPGERATLSCKASQSVGNNVAWYQQKPGQAPRLLIYYASNRYTGIPDRFSGSGSGTDFTLTISRLEPEDFAVYYCQQHYSSPLTFGAGTKLEIK
notes: also called humanized SC4.15

Experiments:
EFNA4 antigen = molecular target: T1, EFNA4 antigen; assay: SPR (Biacore); fixed antibody, antigen concentration series; 1:1 Langmuir model
EphB4-Fc = molecular target: T2, EphB4-Fc; assay: flow cytometry; EphB-Fc on HEK293T.hEFNA4 cells (FIG. 20B)
[1] = molecular target: T5, Fc portion of human IgG alone (human, UniProt P01857-1 100-330 = IgG part, limits assumed); assay: flow cytometry on Jurkat cells (known to express EFNA) (FIG. 12A)
T5 construct: domain: Fc; also called human IgG Fcgamma1 fragment

[2] = molecular target: B2; assay: cell-based or functional assay
human ephrin-A4-His = molecular target: T3, human ephrin-A4-His; assay: ELISA; titrated ephrin-A4-His coated, 0.5 ug/ml hSC4.15 (FIG. 13C)
mouse ephrin-A4-His = molecular target: T4, mouse ephrin-A4-His; assay: as above

Binder B1 has a Kd (EFNA4 antigen) of under 0.1 nM.

B2: no binding (EphB4-Fc); no binding [1].

With B3 the “EC50 (pM) of killing, saporin-Fab in vitro cytotoxicity assay, HEK293T.hEFNA4 cells” value [2] was 13.7 pM, the “EC50 (pM) of killing, saporin-Fab in vitro cytotoxicity assay, PC3 cells” value [2] was 5.4 pM and the binding result (human ephrin-A4-His) was “binds”. B3: binds (mouse ephrin-A4-His).
